The experiment concerns the target T1, streptavidin (UniProt P22629 25-183).
T1 construct: streptavidin; Plate-coated in the ELISA; covalently immobilised by amine coupling to a CM5 chip in SPR; Commercial streptavidin is often a truncated core form; source: bought: Pierce streptavidin-coated 96 well plate (Thermo Fisher Scientific) for the phage ELISA
Description: SPR; Biacore 8K, 25 °C; streptavidin amine-coupled to a CM5 chip; peptides 4.1 – 9000 nM in HBS-EP+ pH 7.4 at 30 µL/min, 180 s association, 600 s dissociation. The settings on record: both partners purified. (Surface plasmon resonance follows binding to a sensor surface in real time, without labels.)

Positions of bridges follow the written chain, without caps; N, C: chain ends. No end group written: not given here. CCA = cyclopropenone-chloroacetamide linker between the two cysteines

T1 sequence (P22629 25-183): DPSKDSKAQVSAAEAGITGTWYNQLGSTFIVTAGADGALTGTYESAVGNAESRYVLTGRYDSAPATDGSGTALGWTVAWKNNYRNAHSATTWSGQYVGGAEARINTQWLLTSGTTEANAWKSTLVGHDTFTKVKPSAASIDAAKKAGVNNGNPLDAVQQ

B1: synthetic peptide Str1-CCA (peptide)
chain: CPINIFHPPPDC
modifications: linker 1-12 via CCA
As a reminder, the Kd is a measure of binding affinity in units of concentration. Take B1: the Kd came to 340 nM.
